Reference: patent US20180282410A1 (Hoffmann-La Roche, published 2018)

What was measured:
Test in all cases: cell-based or functional assay
[1] = molecular target: T1, mouse Robo 4 on MS-1 mouse endothelial cells (mouse, UniProt Q8C310 28-1012)
T1 sequence: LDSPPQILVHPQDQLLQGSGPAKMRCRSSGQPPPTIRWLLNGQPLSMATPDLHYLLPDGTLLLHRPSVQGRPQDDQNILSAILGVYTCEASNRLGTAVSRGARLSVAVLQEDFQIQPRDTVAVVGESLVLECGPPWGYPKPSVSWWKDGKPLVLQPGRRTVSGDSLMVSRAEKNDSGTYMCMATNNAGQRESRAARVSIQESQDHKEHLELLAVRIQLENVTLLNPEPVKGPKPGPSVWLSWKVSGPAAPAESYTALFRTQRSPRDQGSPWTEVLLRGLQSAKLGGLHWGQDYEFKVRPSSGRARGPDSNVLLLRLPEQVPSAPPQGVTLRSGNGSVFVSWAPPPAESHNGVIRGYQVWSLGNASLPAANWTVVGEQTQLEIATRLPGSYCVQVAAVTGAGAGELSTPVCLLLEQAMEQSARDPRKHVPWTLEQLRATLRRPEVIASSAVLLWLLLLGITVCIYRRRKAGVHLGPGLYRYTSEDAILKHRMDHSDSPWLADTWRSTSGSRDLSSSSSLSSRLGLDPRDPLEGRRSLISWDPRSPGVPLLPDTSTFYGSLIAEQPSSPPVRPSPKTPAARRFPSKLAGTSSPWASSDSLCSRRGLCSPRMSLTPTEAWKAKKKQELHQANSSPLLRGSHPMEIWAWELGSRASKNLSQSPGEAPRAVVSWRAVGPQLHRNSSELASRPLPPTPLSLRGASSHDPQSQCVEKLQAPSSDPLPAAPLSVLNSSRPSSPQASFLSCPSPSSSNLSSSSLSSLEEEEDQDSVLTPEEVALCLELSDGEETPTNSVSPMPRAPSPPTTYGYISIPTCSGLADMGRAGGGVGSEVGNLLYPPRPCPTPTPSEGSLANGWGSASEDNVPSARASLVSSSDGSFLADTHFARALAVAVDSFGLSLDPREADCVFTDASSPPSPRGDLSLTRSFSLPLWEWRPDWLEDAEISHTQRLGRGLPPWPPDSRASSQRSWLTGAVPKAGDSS

[2] = molecular target: T2, full-length human Robo 4 (on cells) (human, UniProt Q8WZ75 28-1007)
T2 sequence: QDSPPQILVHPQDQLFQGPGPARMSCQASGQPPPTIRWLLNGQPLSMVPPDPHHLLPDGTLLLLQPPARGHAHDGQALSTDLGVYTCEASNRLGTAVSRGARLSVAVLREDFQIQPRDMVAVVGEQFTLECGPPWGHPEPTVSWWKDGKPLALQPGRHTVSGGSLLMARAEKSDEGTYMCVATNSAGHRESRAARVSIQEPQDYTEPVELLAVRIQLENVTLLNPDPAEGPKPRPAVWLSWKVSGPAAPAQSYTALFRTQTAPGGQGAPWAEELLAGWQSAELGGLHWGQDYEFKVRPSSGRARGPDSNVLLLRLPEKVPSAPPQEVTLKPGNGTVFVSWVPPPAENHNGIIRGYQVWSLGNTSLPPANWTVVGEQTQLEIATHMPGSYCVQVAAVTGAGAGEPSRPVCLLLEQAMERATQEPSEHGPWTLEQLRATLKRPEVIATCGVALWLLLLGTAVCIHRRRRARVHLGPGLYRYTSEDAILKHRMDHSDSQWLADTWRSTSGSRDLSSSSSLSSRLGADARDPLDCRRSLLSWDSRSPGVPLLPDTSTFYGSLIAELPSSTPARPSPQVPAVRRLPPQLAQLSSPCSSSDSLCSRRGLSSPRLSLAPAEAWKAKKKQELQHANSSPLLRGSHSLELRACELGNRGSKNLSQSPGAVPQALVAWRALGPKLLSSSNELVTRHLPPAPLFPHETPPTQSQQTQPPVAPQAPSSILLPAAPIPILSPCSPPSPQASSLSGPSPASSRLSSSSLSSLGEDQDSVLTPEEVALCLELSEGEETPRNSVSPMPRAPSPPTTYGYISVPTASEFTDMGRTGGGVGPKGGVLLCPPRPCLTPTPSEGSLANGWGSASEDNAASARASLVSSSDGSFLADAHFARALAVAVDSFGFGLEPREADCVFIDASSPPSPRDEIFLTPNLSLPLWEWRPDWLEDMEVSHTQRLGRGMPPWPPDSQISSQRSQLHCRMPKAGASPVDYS

[3] = molecular target: T2, full-length human Robo 4 (on cells); remark: listed apart in the source

B1: Molecule B, 1+1 CrossFab-IgG (VH/VL exchange in CD3 binder, CD3 binder V9, Robo 4 binder 01F05) (bispecific antibody)
chain 1: not shown
chain 2: QLVLTQSPSASASLGASVKLTCTLSSQHSSYGITWLQQHPDKAPKYVMYLKSDGSHTKGADIPDRFSGSSSGVHRYLSISNVQPEDEAIYFCVTYDSTHVFGSGTQLTVLGQPKAAPSVTLFPPSSEELQANKATLVCLISDFYPGAVTVAWKADSSPVKAGVETTTPSKQSNNKYAASSYLSLTPEQWKSHRSYSCQVTHEGSTVEKTVAPTECS
chain 3: EVQLVESGGGLVQPGGSLRLSCAASGYSFTGYTMNWVRQAPGKGLEWVALINPYKGVSTYNQKFKDRFTISVDKSKNTAYLQMNSLRAEDTAVYYCARSGYYGDSDWYFDVWGQGTLVTVSSASVAAPSVFIFPPSDEQLKSGTASVVCLLNNFYPREAKVQWKVDNALQSGNSQESVTEQDSKDSTYSLSSTLTLSKADYEKHKVYACEVTHQGLSSPVTKSFNRGEC
chain 4: DKTHTCPPCPAPEAAGGPSVFLFPPKPKDTLMISRTPEVTCVVVDVSHEDPEVKFNWYVDGVEVHNAKTKPREEQYNSTYRVVSVLTVLHQDWLNGKEYKCKVSNKALGAPIEKTISKAKGQPREPQVCTLPPSRDELTKNQVSLSCAVKGFYPSDIAVEWESNGQPENNYKTTPPVLDSDGSFFLVSKLTVDKSRWQQGNVFSCSVMHEALHNHYTQKSLSLSPGK
EC50 of T-cell mediated killing of MS-1 cells (LDH release, human pan T cells, E:T 5:1, 17 h) [1]: 0.115 nM | EC50 of T-cell mediated killing of HUVECs (LDH release, human PBMCs, E:T 10:1), 24 h [2]: 1.61 nM | EC50 of T-cell mediated killing of HUVECs (LDH release, human PBMCs, E:T 10:1), 48 h [2]: 1.55 nM | EC50 of T-cell mediated killing of HUVECs (LDH release, human pan T cells, E:T 5:1, 22 h) [3]: 0.164 nM

B2: Molecule G, 1+1 Fab-CrossFab (VH/VL exchange in CD3 binder, CD3 binder V9, Robo 4 binder 01E06) (bispecific antibody)
chain 1: EVQLVESGGGLSQPGNSLKLSCEASGFTFRNYDMSWVRQAPGKGLEWVAYISSGGGPIYYVDAVKGRFTISRDNAKNLLFLQMNNLRSEDTAVYYCARDLADIGVFDYWGQGTMVTVSSASTKGPSVFPLAPSSKSTSGGTAALGCLVKDYFPEPVTVSWNSGALTSGVHTFPAVLQSSGLYSLSSVVTVPSSSLGTQTYICNVNHKPSNTKVDKKVEPKSCDGGGGSGGGGSDIQMTQSPSSLSASVGDRVTITCRASQDIRNYLNWYQQKPGKAPKLLIYYTSRLESGVPSRFSGSGSGTDYTLTISSLQPEDFATYYCQQGNTLPWTFGQGTKVEIKSSASTKGPSVFPLAPSSKSTSGGTAALGCLVKDYFPEPVTVSWNSGALTSGVHTFPAVLQSSGLYSLSSVVTVPSSSLGTQTYICNVNHKPSNTKVDKKVEPKSC
chain 2: DFKMTQSPDILSPSLGESVTITCQSSQNIYSNLAWYQQKPGEHPKLLIYTASILADGIPSRFTGSGSGTQFSLKISSLQPDDVANYYCQQYVYYRTFGPGTKLEIKRTVAAPSVFIFPPSDEQLKSGTASVVCLLNNFYPREAKVQWKVDNALQSGNSQESVTEQDSKDSTYSLSSTLTLSKADYEKHKVYACEVTHQGLSSPVTKSFNRGEC
chain 3: EVQLVESGGGLVQPGGSLRLSCAASGYSFTGYTMNWVRQAPGKGLEWVALINPYKGVSTYNQKFKDRFTISVDKSKNTAYLQMNSLRAEDTAVYYCARSGYYGDSDWYFDVWGQGTLVTVSSASVAAPSVFIFPPSDEQLKSGTASVVCLLNNFYPREAKVQWKVDNALQSGNSQESVTEQDSKDSTYSLSSTLTLSKADYEKHKVYACEVTHQGLSSPVTKSFNRGEC
EC50 of T-cell mediated killing of MS-1 cells (LDH release, human pan T cells, E:T 5:1, 17 h) [1]: 0.352 nM | EC50 of T-cell mediated killing of HUVECs (LDH release, human pan T cells, E:T 5:1, 22 h) [3]: 0.036 nM

B3: Molecule C, 1+1 CrossFab-IgG (VH/VL exchange in CD3 binder, CD3 binder V9, Robo 4 binder 01E06) (bispecific antibody)
chain 1: not shown
chain 2: DFKMTQSPDILSPSLGESVTITCQSSQNIYSNLAWYQQKPGEHPKLLIYTASILADGIPSRFTGSGSGTQFSLKISSLQPDDVANYYCQQYVYYRTFGPGTKLEIKRTVAAPSVFIFPPSDEQLKSGTASVVCLLNNFYPREAKVQWKVDNALQSGNSQESVTEQDSKDSTYSLSSTLTLSKADYEKHKVYACEVTHQGLSSPVTKSFNRGEC
chain 3: EVQLVESGGGLVQPGGSLRLSCAASGYSFTGYTMNWVRQAPGKGLEWVALINPYKGVSTYNQKFKDRFTISVDKSKNTAYLQMNSLRAEDTAVYYCARSGYYGDSDWYFDVWGQGTLVTVSSASVAAPSVFIFPPSDEQLKSGTASVVCLLNNFYPREAKVQWKVDNALQSGNSQESVTEQDSKDSTYSLSSTLTLSKADYEKHKVYACEVTHQGLSSPVTKSFNRGEC
chain 4: DKTHTCPPCPAPEAAGGPSVFLFPPKPKDTLMISRTPEVTCVVVDVSHEDPEVKFNWYVDGVEVHNAKTKPREEQYNSTYRVVSVLTVLHQDWLNGKEYKCKVSNKALGAPIEKTISKAKGQPREPQVCTLPPSRDELTKNQVSLSCAVKGFYPSDIAVEWESNGQPENNYKTTPPVLDSDGSFFLVSKLTVDKSRWQQGNVFSCSVMHEALHNHYTQKSLSLSPGK
EC50 of T-cell mediated killing of MS-1 cells (LDH release, human pan T cells, E:T 5:1, 17 h) [1]: 0.472 nM | EC50 of T-cell mediated killing of HUVECs (LDH release, human pan T cells, E:T 5:1, 22 h) [3]: 0.046 nM

B4: Molecule I, 1+1 Fab-CrossFab (VH/VL exchange in CD3 binder, CD3 binder V9, Robo 4 binder 01F09) (bispecific antibody)
chain 1: QIQLQESGPGLVKPSQSLSLTCSVTGYSISSGSLWTWIRQFPGNNLEWMGYISYAGGIDYNPSLTSRISITRDTSRNQFFLQLESVTTQDTATYYCATPGGYPFHFDYWGQGTMVTVSSASTKGPSVFPLAPSSKSTSGGTAALGCLVKDYFPEPVTVSWNSGALTSGVHTFPAVLQSSGLYSLSSVVTVPSSSLGTQTYICNVNHKPSNTKVDKKVEPKSCDGGGGSGGGGSDIQMTQSPSSLSASVGDRVTITCRASQDIRNYLNWYQQKPGKAPKLLIYYTSRLESGVPSRFSGSGSGTDYTLTISSLQPEDFATYYCQQGNTLPWTFGQGTKVEIKSSASTKGPSVFPLAPSSKSTSGGTAALGCLVKDYFPEPVTVSWNSGALTSGVHTFPAVLQSSGLYSLSSVVTVPSSSLGTQTYICNVNHKPSNTKVDKKVEPKSC
chain 2: QPVLTQSPSASASLGASVKLTCTLNSQFSTYNIGWYQQHRDKPPKYVMFVKGDGGHSKADGIPDRFSGSSSGADRYLTISNIQAEDEAIYFCGADYNNAGQYGCVFGSGTHFTVLGQPKAAPSVTLFPPSSEELQANKATLVCLISDFYPGAVTVAWKADSSPVKAGVETTTPSKQSNNKYAASSYLSLTPEQWKSHRSYSCQVTHEGSTVEKTVAPTECS
chain 3: EVQLVESGGGLVQPGGSLRLSCAASGYSFTGYTMNWVRQAPGKGLEWVALINPYKGVSTYNQKFKDRFTISVDKSKNTAYLQMNSLRAEDTAVYYCARSGYYGDSDWYFDVWGQGTLVTVSSASVAAPSVFIFPPSDEQLKSGTASVVCLLNNFYPREAKVQWKVDNALQSGNSQESVTEQDSKDSTYSLSSTLTLSKADYEKHKVYACEVTHQGLSSPVTKSFNRGEC
EC50 of T-cell mediated killing of MS-1 cells (LDH release, human pan T cells, E:T 5:1, 17 h) [1]: 4.56 nM | EC50 of T-cell mediated killing of HUVECs (LDH release, human pan T cells, E:T 5:1, 22 h) [3]: 0.198 nM
